± gives the uncertainty stated by the source.

A short description of the data set: amyloid nucleation score (Sup35N fusion, yeast selection) (log enrichment); library NNK1; higher = more nucleation; inactive = no reads after selection. The essentials:
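The nucleation score equals the log enrichment of output over input reads from DiMSum, centred on the mode score of non-aggregating sequences. It was computed only for sequences with 100 or more input reads. The reads came from Illumina sequencing of plasmid inserts from psi-negative yeast expressing Sup35N fused to peptides of 20 random codons, induced with 100 μM copper sulfate for 24 hours and grown 7 days at 30°C without adenine and uracil.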
FHICGFRYSHLGREPMKFGI had an amyloid nucleation score of 2.23 ± 0.19.

As to EFDFK, the amyloid nucleation score was -0.716 ± 0.74. As to IDEYTDMN, the amyloid nucleation score was found to be 0.146 ± 0.42.

Turning to LNALFYLKWALRRWSRKYCE, the amyloid nucleation score came to 1.39 ± 0.79. The figure for RCDLARVLLMGRWLGPNAVW is -0.359 ± 0.67; for CHWLNVYSCFSYVVTYDWSN it is 6.044 ± 0.056; for LGSILV it is -0.751 ± 0.94. The same measure for EDDFASMRLDSLRELVLHNR: “inactive”; for LVSMVWLPM: 0.167 ± 0.84; for HPHVMLGILGHN: 0.752 ± 0.85. In turn, ISKFFYLVW returned an amyloid nucleation score of 0.097 ± 0.52.

As for SLVAGVVFVFMYRVPKIGLV, the amyloid nucleation score is -0.807 ± 1.2.

On to ALPIMKLMACVCGQKGMTYA, for which the amyloid nucleation score is -0.047 ± 0.69. The figure for MPKAQDALTLKNGELKRLSG is 0.295 ± 0.4; for QFKRKIICQDKSVAFKCNYR it is -0.493 ± 0.22. The figure for SEWSRKGVYNACLITG is -0.01 ± 0.48; for GFYIDDYES it is -1.39 ± 2.7; for HHSVGSYRINCLV it is 3.39 ± 0.089. The figure for YKLRFNILASMDNRMKLKWL is -0.899 ± 0.81; for LFTTWMSRGDIVSYNFFL it is 7.681 ± 0.049; for YHNLVLQSICDCSSLADLGW it is 6.66 ± 0.059.

In turn, VMVWHCRSATTWWKQVTMNL yielded an amyloid nucleation score of -0.584 ± 2.1. The same measure for PFRSFLCRVIRALGLY: 0.212 ± 0.95. NHGCQIFRG showed an amyloid nucleation score of 0.667 ± 0.64. The figure for VQDLYCIRYL is -1.39 ± 2.4. The same measure for RVYILFRHLVYSGGKFSVFI: “inactive”. The same measure for APCRVMIYINMSMDYWTMES: 5.19 ± 0.072. MVIYR: the amyloid nucleation score is -0.517 ± 0.75. The figure for LHLWCLQSFYMCWKCPPILE is 2.57 ± 0.26; for ENVSVIRFQRRYRSCPDHGL it is 0.04 ± 0.46; for YPAPPTNCLRQ it is -0.449 ± 0.28.

In the case of ANSSF, the amyloid nucleation score was -0.126 ± 0.54. The figure for GAVPDPKVVGMGFQMGAVNS is 0.877 ± 0.7; for PFINVLSICLLIWALVPVDS it is “inactive”. The figure for ISGAN is -0.06 ± 0.44; for YKYREGGKWPL it is -1.3 ± 2.4; for VLSSDGGGFVYFRYSGYTCR it is 0.253 ± 0.67. The figure for RLRDIG is -0.684 ± 1.2; for SYKVTLVYSRHVVGVKVTRI it is 0.233 ± 0.86; for GIIRKVLAEANLNCKVSSYR it is -0.488 ± 0.61. In turn, NMLWSGITKFGGRGLKSMVV displayed an amyloid nucleation score of -0.169 ± 0.88. The same measure for IGACFWRFIFVKLSTNL: -0.406 ± 0.36; for SWLIRLSLYWYVNWSCMVGV: -0.009 ± 0.45. The same measure for KNVMVFVQDWIVVSCMRVEK: 2.39 ± 0.14; for YMDGVPG: 0.042 ± 1.2. The figure for RRWRTFLMRCKRNDTSKIRR is -1.36 ± 1.2; for LSLSLMLGDIPSTIMRGCFR it is “inactive”; for LYQCRNDCCYDWMLWYTWRS it is 0.505 ± 0.34. In the case of LWLRYGL, the amyloid nucleation score was 0.415 ± 0.72. The figure for NKLTSCTVSHCL is -0.125 ± 0.44.

Regarding HVQIILYLSFKTRRLVDLCL, the amyloid nucleation score entry is “inactive”. The figure for LIEDHVLYHVRAKKYRSHYI is -0.381 ± 0.79.

Take QFDCPEHKRIHYRGPHPKRK: the amyloid nucleation score is -0.356 ± 0.33. The same measure for GSGINVRDITFIL: 4.42 ± 0.071; for SWMCSPRACCLLTFNFECMC: -0.635 ± 0.5; for STHSDGVGML: -0.805 ± 1.2. On to LMSYSECQLSLNAYRGGRVE, for which the amyloid nucleation score is 0.373 ± 0.55. The figure for TVMVGLKVCAHQLDSM is 1.28 ± 0.4.

(Values after the supplement of paper PMC12042874.)
